# Data: a protein production outcome set (Wang et al. 2014)
# Test: label from the status in PepcDB records
# 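Also: failed if final PepcDB status was selected cloned or expressed and not failed if soluble or beyond.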
row,Sequence,protein production
1,MSSLKGHPKGLYLIFATSTAERFSYYGMRAIFILFLTQALLFDKEAAASIYGSYTGLVYLTPLIGGYIADKYWGIRRSVFWGAVMMAVGQFLMFMSASSLNNTDLAHWLMYGGLGFMILGNGCFKPTVSSLVGQLYEPGDKRLDAAYTIFYMGVNVGSFAAPLICGFLGDTGNPQDFKWGFLASGIMTLFTVVLFETQKNKYLFSPSGEPIGIVPDARREKKEDKAEHISHPKMDKRTKVRNIIIITALTVALIAFFSYAFSDDWISVGIFTACIVFPVLILLDGSLTKVERSRIFVIYIVAFFVIFFWAAYEQAGASLTLFASEQTDRSIFGWEMPASWFQSFNPLFVVILAYIMPGIWGFLNKRNMEPASPTKQAIGLLLLSLGYLFICFGVKDAIPGVKVSMIWLTGLYFIHTMGEIALSPIGLSMVNKLSPLRFASLMMGIWYLSTATANKFAGMLSGLYPEDGKVKSILGYQIATMYDFFMLFVIMSGVASLILFLLSKKLQKMMHGVE,failed
2,MSEHPKKVVLLDLDGTLTKSDPGIIGCVVKAFEEMGYPVPDDAELHRFIGPAISESMQRNGIPDDKLDEGVRIYRKYYADEAVFDDPNNPGQKVPGRLNNTIYQGIPEQLAKLRADGYYLAIASCKPQYQCIPICEHFHLDTMVDGIYGASEDNSRLDKDQVIRWAFQHIDFDENAGDKALMVGDRWTDADGAKACGLDCLGCGWGYAEPGELKAHGAYRILDSVDELAQAVEEYFA,not failed
3,MAGDVEGFCSSIHDTSVSAGFRALYEEGLLLDVTLVIEDHQFQAHKALLATQSDYFRIMFTADMRERDQDKIHLKGLTATGFSHVLQFMYYGTIELSMNTVHEILQAAMYVQLIEVVKFCCSFLLAKICLENCAEIMRLLDDFGVNIEGVREKLDAFLLDNFVPLMSRPDFLSYLSFEKLMSYLDNDHLSRFPEIELYEAVQSWLRHDRRRWRHTDTIIQNIRFCLMTPSSVFEKVGTFESDRQDSSI,failed
4,AVPGEVRLQVKDLRSVGGSALNGVNMTLRAGQIYGIAGVGGNGQAELANALMGLPQATEGDIHLAPFGDLRNASAEQRRQLRIASIPADRYGAALAGSLSVAENFGIGNIHSGHYGSFWRLGYKRLKQDAQRAVESFDVQGVRSLDQKAALLSGGNAQKLVIAREFSRDPQLVLVHSPSRGLDVRATQAVHDRLRAARDAGAAVLLISEDLDEVLALADRIGVMNGGRIVAEFDHPADRQAIGKAMVSHD,failed
5,MADFVAASGQLGFWTYCLLMIGSVFSGMTLIGVAGLAFTTGYANVWERIIGPPFAIAFGTILIGYKLFNLKDKNGILTIQDYLAFRYDDPKIIRILAGLISAVTCFVYLIGQYTAIGVVSYVVLGIPYWLGAVIAAVIVVAYVMSGGMFSTAWTTFLQSILMLLGIYVTVPFIIAWVGGFEAMNQALAAMPEIQNATRGVAENFMFAKYLSKPFAPASVPLAGWVYNLTLFGITVPLGLMVAPHIVNNMLTFRKIEYTRWGPLVMYVIGFSAIFLTALAGMAARVAWAKGMIDIPSLTLGSIEVKWSDMAYPTIASKALPYWLFVLLLPTILAGVMSTTDRLILTAANNISYDVLRNALGKNLSENALKKVNMLVVPLIGFGSLLIALFPQQLLAWFIWAALSLMTNCFFFPIMLGLYWDRMTKNAARLSMIAGFVVTLATFAIYGKTIYIAGIPAYSVLPGFVASFVLAVGVSLLEKG,failed
6,MAEASATEPERPDQESADDAVIATRALTKRYRGGQLAVDGLDLTVPAGSVFGFLGPNGSGKTTTIRMLMGLIEPTSGSARVLGRPMPRAARAVLPRVGALIEGPALYGFLSGRDNLLRYDAADPTADPRTRRERVAAALDRVGLAAAGGKKAKAYSLGMKQRLGLAAALLQPRRLLVLDEPTNGLDPQGMREIRSLVRELASDGTTVFLSSHLLDEIEQVCTHAAVMAQGRLITQGAVADLAAGARGRLVVTTPDAGDAARVLKEQGAADVVVDGDRVTAEPPERDLAEVNAALVAARVRVRGFVVERASLEDAFVALTGEGFDVAG,failed
7,MRIVGLTGGIASGKSTVSNLFKASGIPVVDADVVARDVLKKGSGGWKRVVAAFGEEILLPSGEVDRPKLGQIVFSSDSKRQLLNKLMAPYISSGIFWEILKQWASGAKVIVVDIPLLFEVKMDKWTKPIVVVWVSQETQLKRLMERDGLSEEDARNRVMAQMPLDSKRSKADVVIDNNGSLDDLHQQFEKVLIEIRRPLTWIEFWRSRQGAFSVLGSVILGLSVCKQLKIGS,failed
8,MNKEVDLSVSCLGKVKELKYDVIILPWGATEPHNLHLPYLTDCILPHDIAVEAAELALSRSGVRCMVMPPVPFGAHNPGQRELPFCIHTRYATQQAILEDIVSSLHVQGFRKLLILSGHGGNNFKGMIRDLAFEYPDFLIAAANWFEVVSPKGYFEAEIDDHAGESETSVMMHYHPELVNLAEAGDGESKPFAIASLNEKVAWVPRHWDKATVDSGVGNPKKATAEKGERYVKPIVEKLAGLFEEMAQHDLYE,not failed
9,MSRQQARGALGRAWWLQLALALLPLILVEFFLGELQPLPHGLAMPLFIAALLSMFVNLPLFGAYKRGLIATQKALDTAEEAAAWTRLAQVRRKALFGASLPAWIGVPGVFAGLNGVALILLGVTSLVLFWLYRIPRQLG,failed
10,MPTPAYIKIVGQTQGNITAGAFTADSVGNVFQQGHEDQILVQEIKHEVTTPTDPQSGQPSGQRVHKPFIFTSSLNKATPLMYQALATGEMLPTVEVSWYRTSSEGKQEHFFTTTLEDATIVSINTVLPHALDKDNENYTQLVEVSLAYRKITWAHDVANTEGSDDWRAPAA,failed
11,MKVRNVIIGFMVASLTGCSMGHRDPVEIKQTLDKSINENGGLLLADLPASVQADLMPELNTPHVEVEEPVKRFRVRANGVGAKAFFTSLVKGTEYSVVIHPQVSGRITMNLSDVTMDDVLSSVEDLYGYDIVKAGKVLQVYPATIRTETIPVDYLQLTRKGRSLTTITTGSITNSDNNSSNNNNSSSKSNNNSSSSSSSATGGTEIETTSESDFWKELETAISVMIGNGADRSVVVSPQASVVTITASPDELRKVKQFLGTSHKRLQRQVILEAKLLEVTLSDGYQQGINWSNLTASLGGTDVVFGQTSGLVQGALPGMDTIGTLLGGQTNITVSDGNFQAVLSFMDTQGDLNVLSSPRVTAANNQKAVIKVGRDEYYVTEVSSVTGSGDNSNASPEVTLTPFFSGISLDVTPQIDDKGNVMLHVHPSVIDVENEVKEIDLGDVGGVLKLPLAKSSIRESDSVIRAKSGDVVVIGGLMKSQTVDQVSKVPLLGDVPALGHLFRNVSQLTQKTELVILLKPTVVGVDTWQEELERSRDLLQEWFPDELEHHHHHH,not failed
12,MRMGVKDFAPSWFASVMGTGALALVSKSYSFKLPILEAFSKFLTYLNTIIFFVLLIPWLLRWIKYPSEAKKDLYHPVTSHFYGTMPIAMTIVAVNLAMFGYKEIALPLWILGSILVVIFAFLIPYLFFISEGVDVKTITPAWFIPPVGLIVIPLTSLPFVPSSVMWREVFIVLNYFGFGAGFFIYLALFAIVMRRFITHELLPPIMAPAVWINLGPLGAGAVALLNLAKIMPIAKSAFKAFAFILWGFGLWWLIMAILMTLHYLKNLHLPYSLAWWAFIFPLGAYVSATYNVGISIGITAMIEFGFALYWFLLALWLVTGIKTLVHDFSS,failed
13,MEPNKDDNVSLAATAQISAPPVLQDASSLPGFSAIPPVVPPSFPPPMAPIPMMPHPPVARPPTFRPPVSQNGGVKTSDSDSESDDEHIEISEESKQVRERQEKALQDLLVKRRAAAMAVPTNDKAVRDRLRRLGEPITLFGEQEMERRARLTQLLTRYDINGQLDKLVKDHEEDVTPKEEVDDEVLEYPFFTEGPKELREARIEIAKFSVKRAAVRIQRAKRRRDDPDEDMDAETKWALKHAKHMALDCSNFGDDRPLTGCSFSRDGKILATCSLSGVTKLWEMPQVTNTIAVLKDHKERATDVVFSPVDDCLATASADRTAKLWKTDGTLLQTFEGHLDRLARVAFHPSGKYLGTTSYDKTWRLWDINTGAELLLQEGHSRSVYGIAFQQDGALAASCGLDSLARVWDLRTGRSILVFQGHIKPVFSVNFSPNGYHLASGGEDNQCRIWDLRMRKSLYIIPAHANLVSQVKYEPQEGYFLATASYDMKVNIWSGRDFSLVKSLAGHESKVASLDITADSSCIATVSHDRTIKLWTSSGNDDEDEEKETMDIDL,failed
14,YKGQYFTPPHIAQAMAAMTLMDCHSIIEKRGFMKLQEPTCGSGVMIIGSYNHLRQEHFNPQQQLWVRAQDLDFTTAMMCYIQMTLLHIPGEVIIGNTLT,failed
15,MRDLLNDLSEGLSHPDPILRAQIQMQKPLPKRFYKDVTVADVEEGGFTILLDGKPLRTPAKKPLVAPSRALADLLRDEWDAQKEVVNPVVMPVSRHVNTAIDGIASDTQAVFEDILRFSSSDLLCYRAGDPEALVARQTDYWDPVLDWATNVLGARFILVEGVMHRDQPREAIAAFAVTLKKYDTPIALAALHTMTSLTGSAILALALAEGELTLEEAWALAHLDEDWTAEQWGEDEEALERRAVRLIDMRAALNVLESLKSASLEHHHHHH,failed
16,MTHVEDDKEFKEKPLVQVLSDDDSEVKEAKDGGGEEVTGGDGEGEANEEDLGTEYLVRPVGEVEDEDDASDFDPEENGLDEEEGDEEIEEDDVDEDISLSAGKSEPLSKRKRVAKDHSEQGDVTGDNIRPSKR,failed
17,MRSRPTEGNLLVSIGIPFLNPGPYLDLAVRSVFAQTYLNWELILVDDGSTDGSYERAVAIQDPRVRVLRDGQNKGLPARLNEIVRLAKGELVARMDADDAMHPLRLEKQVGFLQANPELDGVTTGAYLIDAEDRPIALLPGRQPSAQEVLARGGFLHPSLLARKSWFEAHPYSLDYPRAEDRELFVRTFKTSRLHVLSEPLYFYRWFGVPRGKTLRIGYRSERKVMWKYGPNLVGWGPSLRLIALSFGKELLTWFLEWTHLEKGFQTRRAFQPLLEMDQREALRTLKVIRETCVPGWDLEHHHHHH,failed
18,TDQAITFDDVLLVPSYNHHESRRVVETTSTDRLGKLTLNLPVISANMDTITESNMANFMHSKGAMGALHRFMTIEENIQEFKKCKGPVFVSVGCTENELQRAEALRDAGADFFCVDVAHAHAKYVGKTLKSLRQLLGSRCIMAGNVATYAGADYLASCGADIIKAGIGGGSVCSTRIKTGFGVPMLTCIQDCSRADRSIVADGGIKTSGDIVKALAFGADFVMIGGMLAGSAPTPGEVFQKDDGSKVKRYRGMASREAQEAFLGQMHEWKTAEGVATEVPFKENPDGIIADIIGGLRSGLTYAGADSISELQRKLNYVIVTQAGRIESLPHKLLEG,not failed
19,MIRVTFLPDQVSVEATAGEAWLSVAARAGVEIPTGCRMGSCGACTLELEDGQEIRACISTIAGDRDPAPLEDCPHITAYVFRDPTW,failed
20,MSLEAGAGAPLARYAAWRRAGDFIFLSGIIPVNPLTGTIVNGFQDVPEPVRELLGATGEFSTDAKQGPILAQSWYVLESIRRTVASAGGQMSDVIKLVQYFRNLDHFPYYSRVRKLFYPDQPPVSTVVQVSEMLPDATVLIEVEATVWLPPSFNSEAEGHHHHHH,not failed
21,MEVIREQEFVNQYHYDARNLEWEEENGTPKTNFEVTFQLANRDEAAKVTSIVAVLQFVIVRDEFVISGVISQMAHIQGRLINEPSEFSQDEVENLAAPLLEIVKRLTYEVTEIALDRPGVTLEF,not failed
22,MKKVILLGATSNISKYLIPRLLAKNDVELTLFARQATRRLHQYAAQSQVTLTNGNWNNSADLTAAIAGQDIVYLATGHFTTANQNVVDAMKQNGVERLIVAGGLGIYDEVAGKFGIWNAQMMGDYTEIKRAAAVIDNSGLNYTFLRMAWLYNNDQHTDYKVIPQGMPFKDTQVTRQAVADLITEIIHNPQLYQRSSIGVAEPNTAWNKPGFY,failed
23,MGRSAVYTILTTGYVGSTGPGVAATVSYVADGGRHVVFDPGMVASRDHILGPLAELGLGPDDITDVVLSHHHPDNTMNVGLFGRATVHDHKVEYLGDQWRNRDAEGYELTPSLRLIRTPGHSLEDITLLAGTDTGVVAFAGDLWWHSDGPADDPVAPDREVLRASRLRVLAAADLIVPGHGSPLEHHHHHH,failed
